The source of these data is article PMC5811355.

This test addresses FhuA 13R1 (Escherichia coli) (UniProt P06971). The test is described as follows: continuous wave EPR of spin-labelled protein.
Chain of UniProt P06971 (P06971 34-747): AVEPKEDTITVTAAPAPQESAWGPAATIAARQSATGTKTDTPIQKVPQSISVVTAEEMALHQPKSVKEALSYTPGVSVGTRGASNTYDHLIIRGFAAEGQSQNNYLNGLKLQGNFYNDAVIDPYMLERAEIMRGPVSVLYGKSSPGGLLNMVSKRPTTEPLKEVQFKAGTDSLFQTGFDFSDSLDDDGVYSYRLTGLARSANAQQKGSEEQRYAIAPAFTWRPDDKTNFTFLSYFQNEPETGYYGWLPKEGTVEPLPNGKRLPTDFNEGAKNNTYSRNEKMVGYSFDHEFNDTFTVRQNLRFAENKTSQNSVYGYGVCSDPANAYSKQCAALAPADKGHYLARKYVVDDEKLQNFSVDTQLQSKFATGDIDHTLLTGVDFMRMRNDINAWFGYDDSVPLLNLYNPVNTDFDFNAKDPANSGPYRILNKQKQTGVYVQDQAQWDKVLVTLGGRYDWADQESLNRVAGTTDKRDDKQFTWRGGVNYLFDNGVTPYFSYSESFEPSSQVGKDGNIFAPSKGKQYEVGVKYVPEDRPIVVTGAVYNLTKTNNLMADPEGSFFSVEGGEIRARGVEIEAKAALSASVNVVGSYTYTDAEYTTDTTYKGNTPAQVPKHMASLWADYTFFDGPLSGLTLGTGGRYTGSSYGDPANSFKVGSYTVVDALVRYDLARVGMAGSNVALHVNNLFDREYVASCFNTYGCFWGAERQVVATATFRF

As to “TonB (103-239) (from UniProt P02929 103-239) (domain or fragment)”, the fraction of FhuA bound to TonB worked out at 95%.
